Assay results from PMC11417369, “DNA sequence and chromatin differentiate sequence-specific transcription factor binding in the human malaria parasite Plasmodium falciparum”.

T1: AP2-HC D1 (Plasmodium falciparum, UniProt Q8IKR9 1316-1374)
T1 sequence: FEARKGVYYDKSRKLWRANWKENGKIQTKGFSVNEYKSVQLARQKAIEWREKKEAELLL

T2: PF3D7_0420300 D1 (Plasmodium falciparum, UniProt Q8I1N6 1956-2015)
T2 sequence: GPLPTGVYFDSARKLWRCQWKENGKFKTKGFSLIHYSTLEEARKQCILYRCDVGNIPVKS


Experiments:
[1] = target: T1, AP2-HC D1; assay: gcPBM; about 25 ug protein; PBS, 1% milk, 0.2 mg/ml BSA, salmon testes DNA, 0.03% Triton X-100; conditions: tags: N-terminal GST (pGEX-4T-1), kept; label: surface-attached array probe
[2] = target: T2, PF3D7_0420300 D1; assay: as above; conditions: tags: N-terminal GST (pGEX-4T-1), kept; label: surface-attached array probe

Row | Binder | binding signal [1] | binding signal [2]
1 | CACACA_negctrl_site1531 (dsDNA) DNA 1: TATTTCCATTCATAATTTTGTAGAATATATAACCGT DNA 2: ACGGTTATATATTCTACAAAATTATGAATGGAAATA | 9.51 ln median PBM intensity, better of two orientations | –
2 | CACACA_negctrl_site1399 (dsDNA) DNA 1: TATTTTAATTTTTTTTTGTTTTTTCTAATACATGTA DNA 2: TACATGTATTAGAAAAAACAAAAAAAAATTAAAATA | 9.45 ln median PBM intensity, better of two orientations | –
3 | CACACA_negctrl_site1 (dsDNA) DNA 1: TTTTTTATTGTGATACGTATATTATTTTTTGATAAA DNA 2: TTTATCAAAAAATAATATACGTATCACAATAAAAAA | 9.51 ln median PBM intensity, better of two orientations | –
4 | CACACA_negctrl_site217 (dsDNA) DNA 1: TAATTTCATCATATTTGTTCCTTCTCAAAATTTTTT DNA 2: AAAAAATTTTGAGAAGGAACAAATATGATGAAATTA | 9.48 ln median PBM intensity, better of two orientations | –
5 | CACACA_negctrl_site1286 (dsDNA) DNA 1: TTGTATTCCTTTTACAACTACCATGAAGAGAATTTT DNA 2: AAAATTCTCTTCATGGTAGTTGTAAAAGGAATACAA | 9.49 ln median PBM intensity, better of two orientations | –
6 | CACACA_negctrl_site1096 (dsDNA) DNA 1: ATTATATTCTTTACTACCAATTAGTAGAAAATAAAA DNA 2: TTTTATTTTCTACTAATTGGTAGTAAAGAATATAAT | 9.31 ln median PBM intensity, better of two orientations | 8.9 ln median PBM intensity, better of two orientations
7 | CACACA_negctrl_site1152 (dsDNA) DNA 1: TCATATTTGCCTTTTTATTTAGAACACAAAAAAAAA DNA 2: TTTTTTTTTGTGTTCTAAATAAAAAGGCAAATATGA | 9.29 ln median PBM intensity, better of two orientations | 8.77 ln median PBM intensity, better of two orientations
8 | CACACA_negctrl_site1022 (dsDNA) DNA 1: ATAAATTGTTCTTTTTGTGTAAACAGAATATTAAAA DNA 2: TTTTAATATTCTGTTTACACAAAAAGAACAATTTAT | 9.48 ln median PBM intensity, better of two orientations | –
9 | CACACA_negctrl_site474 (dsDNA) DNA 1: TAAAAAAAGGAAAACATACAATTCTATTTTTCAATA DNA 2: TATTGAAAAATAGAATTGTATGTTTTCCTTTTTTTA | 9.49 ln median PBM intensity, better of two orientations | –
10 | CACACA_negctrl_site660 (dsDNA) DNA 1: TTTTCTTAATATTTCGTTTTACATAAACCTTTTAAA DNA 2: TTTAAAAGGTTTATGTAAAACGAAATATTAAGAAAA | 9.51 ln median PBM intensity, better of two orientations | –
11 | CACACA_negctrl_site1512 (dsDNA) DNA 1: ACGAATTAAATGGATTAATATATATATGTATATTTA DNA 2: TAAATATACATATATATATTAATCCATTTAATTCGT | 9.5 ln median PBM intensity, better of two orientations | –
12 | CACACA_negctrl_site680 (dsDNA) DNA 1: AACACTCAAAAAAATTTAAATAAAAAAAAAAAAAAA DNA 2: TTTTTTTTTTTTTTTATTTAAATTTTTTTGAGTGTT | 9.05 ln median PBM intensity, better of two orientations | 8.7 ln median PBM intensity, better of two orientations
13 | CACACA_negctrl_site1162 (dsDNA) DNA 1: ACACAAAAAAAAAAAAAAAAAAAAAAAAAAAAGGAA DNA 2: TTCCTTTTTTTTTTTTTTTTTTTTTTTTTTTTGTGT | 9.5 ln median PBM intensity, better of two orientations | –
14 | CACACA_negctrl_site607 (dsDNA) DNA 1: TGTGTCAAGTTTAATAAACGCATATAATATATATGA DNA 2: TCATATATATTATATGCGTTTATTAAACTTGACACA | 9.51 ln median PBM intensity, better of two orientations | –
15 | CACACA_negctrl_site398 (dsDNA) DNA 1: TATTTATTTATTTATTTATTTATTTATTTATATTTA DNA 2: TAAATATAAATAAATAAATAAATAAATAAATAAATA | 9.48 ln median PBM intensity, better of two orientations | –
16 | CACACA_negctrl_site566 (dsDNA) DNA 1: TATTTTTATACAATTTAACACGGGTTATAAAATGTA DNA 2: TACATTTTATAACCCGTGTTAAATTGTATAAAAATA | 9.46 ln median PBM intensity, better of two orientations | –
17 | CACACA_negctrl_site148 (dsDNA) DNA 1: TTTTTGATGAAATATTATTTTCCTGACTTGGATTAA DNA 2: TTAATCCAAGTCAGGAAAATAATATTTCATCAAAAA | 9.49 ln median PBM intensity, better of two orientations | 8.86 ln median PBM intensity, better of two orientations
18 | CACACA_negctrl_site1235 (dsDNA) DNA 1: TTTAAAAAAAAAAAAAAAAAAAAAAAAAAAAATTTG DNA 2: CAAATTTTTTTTTTTTTTTTTTTTTTTTTTTTTAAA | 9.1 ln median PBM intensity, better of two orientations | 8.59 ln median PBM intensity, better of two orientations
19 | CACACA_negctrl_site484 (dsDNA) DNA 1: ATTCATATTAAATATATATATATATATATATATATA DNA 2: TATATATATATATATATATATATATTTAATATGAAT | 9.51 ln median PBM intensity, better of two orientations | –
20 | CACACA_negctrl_site1260 (dsDNA) DNA 1: TAAATCATTTCATGGCATTTACACAAAATTTTTTAA DNA 2: TTAAAAAATTTTGTGTAAATGCCATGAAATGATTTA | 9.48 ln median PBM intensity, better of two orientations | –
21 | CACACA_negctrl_site1685 (dsDNA) DNA 1: ATATATATATAAATATAAATATATATATATATATAT DNA 2: ATATATATATATATATATTTATATTTATATATATAT | 9.5 ln median PBM intensity, better of two orientations | –

Row | Binder | binding signal [1] | binding signal [2]
22 | CACACA_negctrl_site809 (dsDNA) DNA 1: AAATAATATTTTTTTTTTTTTTTTTTTTTATGTTAT DNA 2: ATAACATAAAAAAAAAAAAAAAAAAAAATATTATTT | 9.46 ln median PBM intensity, better of two orientations | –
23 | CACACA_negctrl_site1411 (dsDNA) DNA 1: AATTAAAGGAATTACAACTTTGCAAGCGCAACATAA DNA 2: TTATGTTGCGCTTGCAAAGTTGTAATTCCTTTAATT | 9.47 ln median PBM intensity, better of two orientations | –
24 | CACACA_negctrl_site842 (dsDNA) DNA 1: ACTAAAAGATATATAATTTCTTTCTTATTTATTTTT DNA 2: AAAAATAAATAAGAAAGAAATTATATATCTTTTAGT | 9.49 ln median PBM intensity, better of two orientations | –
25 | CACACA_negctrl_site1762 (dsDNA) DNA 1: TTTTTTTCTTCTTTTCTCTTAAAAATATTGAATATT DNA 2: AATATTCAATATTTTTAAGAGAAAAGAAGAAAAAAA | 9.49 ln median PBM intensity, better of two orientations | –
26 | CACACA_negctrl_site580 (dsDNA) DNA 1: TATTAAAAAAAAAAATAAAAAAATAAAATAAAATAA DNA 2: TTATTTTATTTTATTTTTTTATTTTTTTTTTTAATA | 9.47 ln median PBM intensity, better of two orientations | –
27 | CACACA_negctrl_site1635 (dsDNA) DNA 1: TTTTGATATAAATATTAGATTAATAAATAAAAAAAT DNA 2: ATTTTTTTATTTATTAATCTAATATTTATATCAAAA | 9.46 ln median PBM intensity, better of two orientations | –
28 | CACACA_negctrl_site272 (dsDNA) DNA 1: TACCTTTCTTATTATTGAAAAGGAATATATAAATAG DNA 2: CTATTTATATATTCCTTTTCAATAATAAGAAAGGTA | 9.13 ln median PBM intensity, better of two orientations | 8.89 ln median PBM intensity, better of two orientations
29 | CACACA_negctrl_site1232 (dsDNA) DNA 1: AATATTTTTCAATTTCATGTGCATTCATTGAAGTTA DNA 2: TAACTTCAATGAATGCACATGAAATTGAAAAATATT | 9.51 ln median PBM intensity, better of two orientations | –
30 | CACACA_negctrl_site368 (dsDNA) DNA 1: TTTTTCATTTCTGCATTTATTTATAAATAAATATTT DNA 2: AAATATTTATTTATAAATAAATGCAGAAATGAAAAA | 9.47 ln median PBM intensity, better of two orientations | –
31 | CACACA_negctrl_site1092 (dsDNA) DNA 1: TCAAAATGTGACATAAAAGAAAAAAAAAAAAAAAAA DNA 2: TTTTTTTTTTTTTTTTTCTTTTATGTCACATTTTGA | 9 ln median PBM intensity, better of two orientations | 8.62 ln median PBM intensity, better of two orientations
32 | CACACA_negctrl_site1028 (dsDNA) DNA 1: ATTTTTTTATGTACACAAAAAAAAAAAAAAATTTAA DNA 2: TTAAATTTTTTTTTTTTTTTGTGTACATAAAAAAAT | 9.48 ln median PBM intensity, better of two orientations | –
33 | CACACA_negctrl_site629 (dsDNA) DNA 1: TGCTTATATCTTATAATATTTATACATCATAATAAG DNA 2: CTTATTATGATGTATAAATATTATAAGATATAAGCA | 9.47 ln median PBM intensity, better of two orientations | –
34 | CACACA_negctrl_site1139 (dsDNA) DNA 1: ATTTTTTTTTTTTTTATTCCCCTTTCGAAAAAAACC DNA 2: GGTTTTTTTCGAAAGGGGAATAAAAAAAAAAAAAAT | 9.47 ln median PBM intensity, better of two orientations | 9.05 ln median PBM intensity, better of two orientations
35 | CACACA_negctrl_site347 (dsDNA) DNA 1: TTATATATATTTAAAAAAATAACATAAATAAATAAA DNA 2: TTTATTTATTTATGTTATTTTTTTAAATATATATAA | 9.47 ln median PBM intensity, better of two orientations | –
36 | CACACA_negctrl_site49 (dsDNA) DNA 1: AATATATAAATATATATAAATAAATATATATATAAA DNA 2: TTTATATATATATTTATTTATATATATTTATATATT | 9.5 ln median PBM intensity, better of two orientations | 8.92 ln median PBM intensity, better of two orientations
37 | CACACA_negctrl_site721 (dsDNA) DNA 1: TTTTAAAAAAAATAAAAAATAAACAATAATAAATAA DNA 2: TTATTTATTATTGTTTATTTTTTATTTTTTTTAAAA | 9.49 ln median PBM intensity, better of two orientations | –
38 | CACACA_negctrl_site929 (dsDNA) DNA 1: ACAGATATACATAAAAAAAAAATAATTTTACATATA DNA 2: TATATGTAAAATTATTTTTTTTTTATGTATATCTGT | 9.47 ln median PBM intensity, better of two orientations | –
39 | CACACA_negctrl_site1828 (dsDNA) DNA 1: ATCTCAAATATAATAAATTATTAGGTATATATATAT DNA 2: ATATATATATACCTAATAATTTATTATATTTGAGAT | 9.46 ln median PBM intensity, better of two orientations | –
40 | CACACA_negctrl_site215 (dsDNA) DNA 1: ATAAAATATTATATATATATATATATATATATATAT DNA 2: ATATATATATATATATATATATATATAATATTTTAT | 9.5 ln median PBM intensity, better of two orientations | –
41 | CACACA_negctrl_site844 (dsDNA) DNA 1: AATATCATCCTTTTTTTTTATAAAATTTAAAATATA DNA 2: TATATTTTAAATTTTATAAAAAAAAAGGATGATATT | 9.5 ln median PBM intensity, better of two orientations | –
